± gives the standard deviation of the averaged measurements.
Tests used:
[1] = melting temperature (DSF); higher = more thermostable
Method in brief: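 Candidate enzymes were expressed in E. coli C41(DE3), purified on nickel beads and released by SUMO protease cleavage. For differential scanning fluorimetry, 45 μL enzyme (0 to 0.3 mg/mL) was mixed with 5 μL 5X Sypro Orange in sealed PCR plates on a Bio-Rad CFX96 instrument. Fluorescence was read from 25 °C in steps of 0.3 °C per cycle (ramp 0.3 °C/s) for 250 cycles. The read-out is melting temperature.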

[2] = purified protein yield per well (BCA); higher = higher soluble expression
Method in brief: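 Candidate enzymes were made in 2 mL autoinduction cultures of E. coli C41(DE3) with 100 µg/mL kanamycin, at 37 °C for 2 h and then 18 °C for 40 h, and purified with Ni-charged magnetic beads and SUMO protease cleavage. The Pierce Rapid Gold BCA kit gave purified protein yield per well. Values lower than 25 ug (0.1 mg/mL) are below the detection threshold.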

[3] = PET hydrolysis, aromatic products released after 48 h (umol product/mg enzyme); higher = more PET depolymerization activity
Method in brief: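 Sealed plates containing 3.5 mg PET (amorphous film or crystalline powder), 450 μL buffer and 5 μg (50 μL) tagless candidate enzyme were held 48 h at 40 or 60 °C with no shaking. Supernatants were then read at 260 and 280 nm against buffer blanks. The aromatic product detected this way, per mg enzyme, defines PET hydrolysis activity.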

[4] = substrate: cryPow, 40 °C, pH 4.5
[5] = substrate: cryPow, 40 °C, pH 5.5
[6] = substrate: cryPow, 40 °C, pH 6.5
[7] = substrate: cryPow, 40 °C, pH 7.5
[8] = substrate: cryPow, 60 °C, pH 4.5
[9] = substrate: cryPow, 60 °C, pH 5.5
[10] = substrate: cryPow, 60 °C, pH 6.5
[11] = substrate: cryPow, 60 °C, pH 7.5

Sequence | melting temperature [1] | purified protein yield per well [2] | PET hydrolysis ([3]; substrate: aFilm, 40 °C, pH 4.5) | PET hydrolysis ([3]; substrate: aFilm, 40 °C, pH 5.5) | PET hydrolysis ([3]; substrate: aFilm, 40 °C, pH 6.5) | PET hydrolysis ([3]; substrate: aFilm, 40 °C, pH 7.5) | PET hydrolysis ([3]; substrate: aFilm, 60 °C, pH 4.5) | PET hydrolysis ([3]; substrate: aFilm, 60 °C, pH 5.5) | PET hydrolysis ([3]; substrate: aFilm, 60 °C, pH 6.5) | PET hydrolysis ([3]; substrate: aFilm, 60 °C, pH 7.5) | PET hydrolysis [3, 4] | PET hydrolysis [3, 5] | PET hydrolysis [3, 6] | PET hydrolysis [3, 7] | PET hydrolysis [3, 8] | PET hydrolysis [3, 9] | PET hydrolysis [3, 10] | PET hydrolysis [3, 11] | PET hydrolysis ([3]; substrate: cryPow, 40 °C, pH 8.5) | PET hydrolysis ([3]; substrate: cryPow, 60 °C, pH 8.5)
ADNPYQRGPDPTPASVSANRGTFATAQISVPAGNGFGGGVIYHPTDTSQGTFGAIAVVPGYTATWAAEGAWMGHWLASFGFVVIGIDTNSRNDWDTARGTQLLAALDYLTQRSPVRDRVDANRTAVMGHSMGGGGAMHAALQRPSLKAAIGLAPFSPSQNLTTTRVPTMLLAGQSDTTTTPASILNLYNGIPAATEKAYLELTGAGHGFPTSNNPTMMRNVIPWLKIFVDSDTRYTQFLCSLSNWDGIRAYQSTCPLVPSPVPTTTSTTSTTTTISTTTTTPAPGDACSATYRTTNSWPGGYQAEVTVTAGNTAVNGWNVQWTLGSGQTVTQVWNGTLNVSGSTASVRNASYNGSLQANTSTTFGFIGGGTPPTSSLSCTSP [ESM035] | 57.4 C | 510 µg | < 3 | < 3 | < 3 | < 3 | < 3 | < 3 | < 3 | < 3 | < 3 | < 3 | 7 ± 2.8 | 23.5 ± 0.71 | < 3 | < 3 | < 3 | < 3 |  | 
ADNPYQRGPDPTPQSISAPTGPFATASVTVPRQGNFGGGVIYYPTDTSQGTFGAVAISPGLNGTWPGIAWLGPRLSSQGFVVFGIDTLGLSDSTASRGSQLLAALDYLTQTSSVRTRVDSSRLAVAGHSMGGGGAFEAALRRPALKAAIPNAPFFPGSASNVRVPTLITAMQNDSLVGQNRNAYNGIPAGVEKAYVELAGAGHNQIGQPTTAIARNWIPWLKIFVDSDARYHQFLCPTTDMSGLSQYLNTCPLISTTPPTSSPSAQPTTPGPTGPPPGGACAATYRTVNSWSDGYQGEMTVQAGSSAINGWTVRWTMSGGQTISQVWNGTLVAGSGAAAVRNVAYNGSLAAGASTTFGFISSGTPSATSITCGSP [ESM081] | 68.2 C | 182 µg |  |  |  |  |  |  |  |  | 4 | 17 | 45 | 82 |  |  |  |  |  | 
ADNPYQRGPDPTPQSISATTGPFATASVTVPRQGNFGGGVIYYPTDTSQGTFGAVAISPGLNGTWPGIAWLGPRLSSQGFVVFGIDTLGLNDSTASRGSQLLAALDYLTQTSSVRTRVDASRLAVAGHSMGGGGAFEAVLRRPTLKASIPNAPFFPGSAANVRVPTLITAMQNDSLVGQNRNAYNGIPAGVEKAYIELAGAGHNQIGQPTTAIARNWIPWLKIFVDNDARYHQFFCPTTNMSGLSQYLNTCPLTSATPPTSSPSAGPTTPGPTGPPPGGACAATYQTVNTWSGGYQGEMTVRAGNSAINGWTVRWTMGGGQISQVWNGTLVTGSGAAAVRNAPYNGALAAGATTTFGFISSGTPSATSLTCATP [ESM064] | 63.1 C | 164 µg |  |  |  |  |  |  |  |  | < 3 | 11 | 10 | 74 |  |  |  |  |  | 
ADNPYQRGPDPTPTSVTAVNGPFANTSVAVPTGYGFNGGRIYYPTDTSQGTFGAIAISPGYTALFSAELAWMGPWLASHGFVVIGIETNSRNDFDTARGTQLLAALDYLTQQSPVRDRVDPNRLAVAGHSMGGGGALSAATRRSSLKAAVGIAPYSPSSNLANDRVPTMIFAGQADTVVTPSYASGLYNSLPATTESVYLEVAGADHGFMVGRSNPVMVRTMLPFVKMFIDNDTRYSQFLCPLMDSSGVVTSRSTCPLLPSDPTTPTPTPTTPDPTPTVPPGSASEIVGTQSGRCIDVPNASRTNGTRVQLYNCNRQTNQAWTYTSNKQLQVYGTMCLDAAGSGNGAAVQIYSCHSGTNQQWNVNSNGTISGVQSGRCLDVWSTSNGAQVQLYDCHGQTNQQFRLAPLG [ESM132] | 56.2 C | 144 µg |  |  |  |  |  |  |  |  | < 3 | 5 | < 3 | < 3 | < 3 | < 3 | < 3 | < 3 |  | 
ADNPYQRGPDPTQSSVSASRGTFATAQVGVPAGNGFGGGVIYHPTDTSQGTFGAVAIVPGYTATWAAEGAWMGHWLASFGFVVIGIDTNNRNDWDTARGTQLLAALDYLTQRSSVRDRVDPSRTAVMGHSMGGGGAMYAALQRPSLKTAVGLAPFSPSQNLTTTRVPTMLLSGQNDTTTTPASIVNLYNGIPSSVEKAYLELTGAGHGFPTSNNSTMMRNVIPWLKIFVDSDTRYTQFLCPLSDSNGIRTYQNTCPLVPSPVPTTTSTTSSTSTTTTSTTTTTTTSVPVGACSATYRTTNAWSGGYQGEVTVAAGDSAVNGWTVRWTLDSGQTISQVWNGTLSATGSAVSVRNASYNGSLRPGTSTTFGFIAGGAPSTPVLSCTSP [DP072] | 58 C | 89 µg |  |  |  |  |  |  |  |  |  | < 3 | 8 | 24 |  | < 3 | < 3 | < 3 | 32 | 3

— the supplement of paper PMC12455559
